In the supplement of paper PMC10126150:
± gives the standard deviation of the averaged measurements.

tested on: ATP; assay: switch fluorescence ratio, 500 uM ATP over buffer (Cy3 cluster intensity, sum of 5 cycles each) (fold (ratio)); higher = stronger signal-on switching upon ATP binding; sequences stand for … in TCGTCGGCAGCGTCAGATGTGTATAAGAGACAGTTTTTTTTTTTTTTTTTTTTTTTTT…TC; conditions: aptamer strand: ATP DNA aptamer (quencher-CACCTGGGGGAGTATTGCGGAGGAAGG + anchor), 100 nM annealed; ATP concentration: 500 uM
In short: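 Cy3-labelled switching-strand clusters on a modified Illumina MiSeq flow-cell were annealed to 100 nM quencher-labelled ATP aptamer and imaged first in selection buffer, then after 15 min with 500 uM ATP at 22 °C. NaOH stripping and re-annealing separated each of five buffer/ATP cycles, and clusters outside 100-1000 RFU were excluded. The fluorescence ratio sums target-cycle Cy3 intensity over buffer-cycle Cy3 intensity per cluster and averages it per switch-domain sequence.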
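Also: ATP exposure 15 min at 22 °C before imaging.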

Sequence	switch fluorescence ratio
AATCATAGTT	1 ± 0.014
TGGGGATTTG	0.99 ± 0.032
CTAGTTCAGC	0.99 ± 0.028
CGTCTGGCGA	1.02 ± 0.014
CTCAGGGTTT	1.04 ± 0.023
TTAAAAACAT	1.024 ± 0.0014
TGGGGCTACC	1.06 ± 0.093
CTAATACTAG	0.982 ± 0.047
GGTTAATTAC	1.02 ± 0.034
TATGGGTCTC	0.973 ± 0.049
GGACACTGGT	1.06 ± 0.041
TGACTCGAGT	1.01 ± 0.012
CGCCGGGGGG	1.04 ± 0.046
GATTTTTATT	0.988 ± 0.025
TTAAATTATC	1.041 ± 0.0058
CAGATTTGCT	0.983 ± 0.013
GGGATGTTTG	0.987 ± 0.017
ATGATACCTT	1.17 ± 0.019
AAGGGGATGT	1.03 ± 0.032
GTATGCTTTT	1.034 ± 0.0043
CTTTATATAC	1.35 ± 0.025
CGTGTTTTTT	0.991 ± 0.029
TCGGGGGATT	0.966 ± 0.028

Sequence	switch fluorescence ratio
TTCGTCAATC	2.17 ± 1.3
ATGTGGGGTG	1.06 ± 0.053
TCGATCAACG	0.9909 ± 0.0013
AGACACATCC	1.11 ± 0.022
AGATTTATCC	0.977 ± 0.065
GGGCGGGGGC	1.02 ± 0.056
TATAAAGTTG	1.01 ± 0.062
ATGGGTCTTT	0.9811 ± 0.0016
TGATTTTGGT	1.01 ± 0.025
GATGTGCAGG	0.9915 ± 0.0084
CCTAGGGAGC	1.07 ± 0.1
CCGTTGGGCT	1.01 ± 0.025
TGTTAGTCCC	0.9897 ± 0.0022
TCAAAATTGG	1.004 ± 0.0082
TGTAGGGGGT	1.01 ± 0.041
AAAATGAAGT	1.03 ± 0.048
GGTATTGTTT	0.9881 ± 0.0066
GGAGAGGGAG	0.9883 ± 0.0015
AACGAAAGGG	1.03 ± 0.074
CTATAAGGGG	0.999 ± 0.026
GGGGTGTTTT	0.999 ± 0.048
TGGGGAGTGG	1.02 ± 0.065
TAATGGTCAC	1.01 ± 0.011

Sequence	switch fluorescence ratio
GGGTCTGTGG	0.9812 ± 0.0062
AAGTGTGCCT	0.983 ± 0.01
TGCGAACACT	1.002 ± 0.0064
GGAAGTTGTA	1.07 ± 0.13
TTAAACCTTG	1.15 ± 0.042
TTCTGTTCTG	1.01 ± 0.039
TTTGGCGATT	0.962 ± 0.017
CGGAGTCCGG	1.04 ± 0.059
ATCATAATAC	1.406 ± 0.0065
TGCCGGGGTC	1 ± 0.048
TATTGGGCTA	0.993 ± 0.044
CATTCGCTGA	1.92 ± 0.19
GTGATTTTCT	0.998 ± 0.015
TTCTTAATTT	1 ± 0.025
TGGTAGGTGA	0.997 ± 0.025
ATTGATTAAC	1.013 ± 0.0043
GATTTGGAAT	0.986 ± 0.037
AGGAAGCAG	1.003 ± 0.0027
GACCCTATAA	1.11 ± 0.066
TGCTACAGTT	0.985 ± 0.024
CTGTTATTGT	0.972 ± 0.024
GGTGGATGGG	0.987 ± 0.014
AAAAATGCGC	1.03 ± 0.017

Sequence	switch fluorescence ratio
TTGAGATCCG	0.986 ± 0.053
GGGTGCACAC	1.09 ± 0.095
GAAGGCCGGG	1.033 ± 0.0054
TTTGTGTCTG	0.998 ± 0.012
AGATATAACT	1.021 ± 0.0066
ATCGCTAGCT	0.9905 ± 0.0068
TCATTATGCA	1.04 ± 0.018
TGGCGTCTTA	0.9875 ± 0.0033
AATAGCAGGC	1.06 ± 0.028
AAATCGGAAA	0.98 ± 0.028
ACGTATGGGC	1.082 ± 0.0027
TATATTATTA	0.985 ± 0.031
CAGTATTCGG	1 ± 0.015
TTTTTTACCA	1.01 ± 0.036
TTGGGTAGAT	0.988 ± 0.025
CTGGGTTAGT	1.03 ± 0.035
ATGGGGGATT	1 ± 0.025
TCATGCGAAA	1.1 ± 0.013
AACTAGGTCG	0.974 ± 0.058
CGGAGCAGTT	2.46 ± 0.41
GGATTGAGGG	0.968 ± 0.021
ACGGGATTTG	0.9822 ± 0.0073
GATTTCATCT	0.995 ± 0.032

Sequence	switch fluorescence ratio
TGTTAGTGGG	1.02 ± 0.032
CTTGGGGGGG	0.991 ± 0.02
GCCGACTCTG	1.04 ± 0.048
TTAAGGTTAA	1 ± 0.029
CGGGTAGCG	0.969 ± 0.013
GCATGGCCTA	0.997 ± 0.021
GGTAGGGGGA	1.02 ± 0.046
GCAAGGCGAG	1.3 ± 0.031
ATAGGGTCGT	0.998 ± 0.011
TCATGTTGTG	1.01 ± 0.02
TTAGGCTGCG	1.06 ± 0.1
CGTAATTTCT	1.06 ± 0.038
GGGGAGCGTC	1.01 ± 0.032
TCGTCAAGTT	1.007 ± 0.01
TTTGTTGCTT	0.989 ± 0.012
TTTAGCAAAC	3.53 ± 0.95
CAGATGCCTC	1.012 ± 0.0086
AGGGACTGGG	0.993 ± 0.038
GAATAGTGGG	1.006 ± 0.005
ACATCCGAGT	1.05 ± 0.054
TTATGGGGTG	1.01 ± 0.027
ACTATTCGCT	1.02 ± 0.01
TTGAATTGGG	0.999 ± 0.046

Sequence	switch fluorescence ratio
TATTTGCTGT	1.001 ± 0.001
GTTGTGTGTT	0.975 ± 0.016
ATTACGGCAG	1.02 ± 0.059
GGGGAAGTGG	1 ± 0.026
ATTTATCGCA	1.011 ± 0.0041
TTCAGTGGGG	0.991 ± 0.039
GGAGATTGAT	1 ± 0.021
AACCTTTCTT	1.46 ± 0.041
ATCCCAATGT	1.14 ± 0.026
GGGTTGAATA	0.953 ± 0.056
ACAGCTGATG	0.977 ± 0.059
TGTACGGATT	1.0016 ± 0.00058
GTTAGAATGG	0.981 ± 0.017
ACGATTTTGC	1.04 ± 0.033
ATGGGGATTG	0.983 ± 0.048
TTTTTTAATA	1 ± 0.036
TTTTCTCCGA	1.2 ± 0.26
AGCTAGTTAC	1.38 ± 0.014
CTGAATGCGT	0.9844 ± 0.0084
AAAAGTTTGA	0.9656 ± 0.008
GGGGTTAGTG	0.971 ± 0.034
CGAACTTGTT	1.01 ± 0.04
TGCGTCGCCT	1.013 ± 0.0049

Sequence	switch fluorescence ratio
TCACCGACTA	1.1952 ± 0.00033
ATGGGGGATG	0.973 ± 0.028
ATTGGTCCTG	0.999 ± 0.02
GGAGAAGTCC	1.03 ± 0.093
AAAAGTGCCA	0.999 ± 0.027
TTAGGCTAAT	1.02 ± 0.025
TTCGCATCTA	1.15 ± 0.056
TTTGCGCGTT	0.985 ± 0.018
AAAAAAAATT	0.993 ± 0.044
GAGATGTACC	1.03 ± 0.026
ATGGGATAAG	0.998 ± 0.029
ATTCCTAACA	1.008 ± 0.0089
TCCAGGGGAG	1.13 ± 0.032
AGTGTTTTGG	0.967 ± 0.024
CTTGACGCCG	1.09 ± 0.13
TAATTGGGGG	1 ± 0.03
TCGCGCATTG	1.14 ± 0.13
TGTCGGATTA	0.979 ± 0.011
GTCGATGGTG	1 ± 0.016
